The results in this text go back to PMC9060518.

The assay concerns the target KCNQ5-ER-c.

KCNQ2-ER-n (from UniProt O43526) displayed a block of KCNQ2/5-tandem currents by 10 mM TEA in HEK293T cells of 48 % block.
